Patent publication US20260085338A1

Tests used:
[1] = target: phi15 RNA polymerase (Pseudomonas phage phi15); assay: cell-based or functional assay
[2] = target: P. putida RNA polymerase (Pseudomonas putida); assay: cell-based or functional assay

Substance	leaky expression (msfGFP; P. putida, 5 mM Rha) (nM 5(6)-FAM/OD600) [1]	fold induction (FITC-A of +RNAP,-lys against -RNAP,+lys), P. aeruginosa [1] [fold]	fold induction (FITC-A of +RNAP,-lys against -RNAP,+lys), P. putida [1] [fold]	induced (%) cells with FITC-A above 10^4, P. aeruginosa, -RNAP +lys [1] [%]	induced (%) cells with FITC-A above 10^4, P. putida, -RNAP +lys [1] [%]	median FITC-A, flow cytometry, P. aeruginosa, -RNAP +lys (5 mM Rha) [1] [FITC-A]	median FITC-A, flow cytometry, P. putida, -RNAP +lys (5 mM Rha) [1] [FITC-A]	further results
Pf-10 lysozyme (enzyme)								decrease in msfGFP output (leakiness of the phi15 RNAP; P. putida, 4 mM Rha) [1]: 84%
Phi15 GP16 RNA polymerase inhibitor								cell growth (OD600) of P. putida after induction with 10 mM Rha [2]: 1.4 OD600
phi15 lysozyme (AA1-9>Pf-10 (AA1-10)) (enzyme)	23							
phi15 lysozyme (G3R) (enzyme)	57							
phi15 lysozyme (G3RQ) (enzyme)	11	130	9.64	5.94	66.7	527	12700	leaky expression from the phi15 RNAP (msfGFP; P. aeruginosa, 5 mM rhamnose) (5(6)-FAM/OD600) [1]: 29; leaky expression from the phi15 RNAP against the wild-type phi15 lysozyme (P. aeruginosa, 5 mM rhamnose) [1]: 13 fold lower
phi15 lysozyme (wild-type) (enzyme)	122	7.36	4.1	77.5	80	33400	17800	leaky fluorescence with lysozyme induced (P. putida, 4 mM Rha) (nM 5(6)-FAM/OD600) [1]: 77
